Assays:
wild-type MEFs = experiment: Apoptosis assay in wild-type MEFs deprived of serum; type: cell-based, mouse
Protocol: Apoptosis assays. Wild-type MEFs infected with the indicated retroviruses for 36 hours were starved for serum for 24 hours. Viability was determined by trypan blue dye exclusion, and DNA fragmentation was monitored by a terminal deoxynuclectidyl transferase (FACS-TUNEL) assay and by measurement of subdiploid DNA content of propidium iodide-stained nuclei [Zindy et al., Genes Dev. 12:2424-2433 (1998)].
On the other hand, MEFs overexpressing c-Myc, E2F-1, or E1A are exquisitely sensitive to apoptosis. […] 12:2424-2433 (1998); De Stanchina et al., Genes Dev. 12:2434-2442 (1998)].

D-type cyclins = biological target: T1, D-type cyclins (Mus musculus, UniProt P25322); experiment: In vitro binding of [35S]methionine-labeled D-type cyclins to GST fusion proteins; conditions: cyclin D1
T1 construct: made in house; host or cells: in vitro transcription (Stratagene) and translation (rabbit reticulocyte system, Promega)
T1 sequence (P25322 whole entry, the tested form may be a part): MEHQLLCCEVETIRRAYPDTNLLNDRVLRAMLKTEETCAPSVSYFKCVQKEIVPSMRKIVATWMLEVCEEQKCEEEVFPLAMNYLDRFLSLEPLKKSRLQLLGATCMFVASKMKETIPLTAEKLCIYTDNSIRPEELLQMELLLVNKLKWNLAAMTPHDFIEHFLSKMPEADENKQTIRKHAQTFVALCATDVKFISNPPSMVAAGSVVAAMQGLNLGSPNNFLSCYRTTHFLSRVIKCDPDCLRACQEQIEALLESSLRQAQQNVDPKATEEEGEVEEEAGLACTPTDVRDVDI
Protocol: A BglII fragment encoding amino acids 176-761 of DMP1 (FIG. 1) is subcloned into the BamHI site of the pGEX-3X plasmid (Pharmacia, Uppsala Sweden), and overnight cultures of transformed bacteria are diluted 10-fold with fresh medium, cultured for 2-4 more hours at 37° C., and induced with 1 mM isopropyl-β-D-thiogalactopyranoside (IPTG) for 1 hour. Induced bacteria are lysed by sonication in phosphate-buffered saline (PBS) containing 1% Triton X-100, and recombinant glutathione-S-transferase (GST)-DMP1 protein is purified by absorption and elution from glutathione-Sepharose beads as described (35). […] After 2 hours at 4° C., the beads are collected by centrifugation, washed 4 times with IP Kinase buffer, and the bound proteins are denatured and analyzed by electrophoresis on 11% polyacrylamide gels containing sodium dodecyl sulfate (SDS) (1).
Because DMP1 interacted with cyclin D2 in yeast, the ability of a glutathione S-transferase (GST)-DMP1 fusion protein to bind D-type cyclins in vitro is examined. […] Bound cyclins recovered on washed glutathione-Sepharose beads are analyzed by electrophoresis on denaturing gels. […] GST-DMP1 is less efficient than GST-RB in binding cyclins D2 and D3 (˜4-fold less binding), and under these conditions, an interaction with D1 is not detected (lanes 3, 7, 11). […]

p19ARF = experiment: Induction of endogenous p19ARF protein in retrovirus-infected MEFs; type: cell-based, mouse; conditions: early passage MEFs, retroviral infection
Protocol: Virus production and infection. Human kidney 293T cells were transfected with a helper ecotropic retrovirus plasmid defective in psi-2 packaging sequences, together with pSRα vectors containing murine DMP1, human c-Myc, human E2F-1, or human Ets1 cDNAs [Zindy, et al., Genes Dev. 12:2424-2433 (1998); Inoue and Sherr, J. Biol. Chem. 273:29188-29194 (1998)]. Viruses were harvested every 6 hours 24-72 hours after transfection, filtered and stored at 4° C. until used for infection [Zindy, et al., Genes Dev. 12:2424-2433 (1998)]. In order to construct a retroviral vector containing DMP1 linked to a mutated tamoxifen-responsive element of the estrogen receptor (DMP1-ER™), a 3′ 0.3 kb EcoNI DNA fragment of murine DMP1 cDNA was amplified by PCR using
RNA and protein expression. Quantitative RT-PCRs employed specific primers for murine ARF exon 1β (30 cycles) and for β-actin (20 cycles) used as a control [Zindy et al., Oncogene 15:203-211 (1997)]. […]
Based on the above observations, it was determined as to whether introduction of DMP1 would induce synthesis of the endogenous ARF protein in normal diploid fibroblast strains. […] Although the blot was normalized for protein input, the levels of p19^ARF induced by DMP1 were calculated to be 2-fold higher than those induced by Myc, because fewer cells were productively infected with the DMP1 virus in this experiment (see FIG. 15A).

[1] = test system: 281 bp ARF promoter fragment; experiment: Transactivation of ARF promoter-luciferase reporter in NIH-3T3 cells; type: cell-based, mouse; conditions: NIH-3T3, 281 bp ARF promoter fragment-luciferase
Protocol: Transactivation assays. NIH-3T3 cells were transfected with 4 μg of pGL2-ARFpro BamHI or its DMP1 binding site mutant, with or without increasing amount of pFLEX-DMP1, pEVRFO-Ets1, pCMV-Ets2, pRcRSV-Elfl, pdEB-Fli1, p(IEB-EWS-Fli1 or pCMV-E2F-1 (89-437), and 4 μg β-actin SEAP control vectors [Inoue and Sherr, Mol. Cell. Biol. 18: 1590-1600 (1998); Inoue et al., J. Biol. Chem. 273:29188-29194 (1998); Davis and Roussel, Gene 171:265-269 (1996); Baily et al., Mol. Cell. Biol. 14:3230-3241 (1994)]. Transfections and normalization of luciferase levels with internal control SEAP levels were performed as described [Inoue and Sherr, Mol. Cell. Biol. 18:1590-1600 (1998)].
Similarly, DMP1 deletion mutants defective in transactivation [Inoue and Sherr, Mol. Cell. […] Mutation of the DMP1 binding site within the ARF promoter [changing CCCGGATGC, (SEQ ID NO:33) to CCCGTCGAC, (SEQ ID NO:42)] also completely abolished transactivation by wild-type DMP1 (FIG. 14C, mutant reporter). Therefore, sequences within the −189 to −181 ARF promoter segment were the only ones responsible for DMP1-mediated transactivation. Although Ets1 could bind to a 23 base pair oligonucleotide containing the DMP1 consensus site (FIG. 14B), several Ets proteins were unable to induce significant reporter gene expression from the more complex 281 base pair ARF promoter (FIG. 14C). […]

B1: ARF: ARF tumor suppressor protein (protein)
chain: MGRRFLVTVRIQRAGRPLQERVFLVKFVRSRRPRTASCALAFVNMLLRLERILRRGPHRNPGPGDDDGQRSRSSSSAQLRCRFELRGPHYLLPPGARRSAGRLPGHAGGAARVRGSAGCARCLGSPAARLGPRAGTSRHRAIFAFRWVLFVFRWVVFVYRWERRPDRRA
wild-type MEFs
  apoptosis / cell death: did not trigger apoptosis

B2: GST-DMP1: GST fused to residues 176-761 of DMP1, bacterially synthesized (protein)
chain: GIKDATEIIFEMSKDERKDFYRTIAWGLNRPLFAVYRRVLRMYDDRNHVGKYTPEEIEKLKELRIKHGNDWATIGAALGRSASSVKDRCRLMKDTCNTGKWTEEEEKRLAEVVHELTSTEPGDIVTQGVSWAAVAERVGTRSEKQCRSKWLNYLNWKQSGGTEWTKEDEINLILRIAELDVADENDINWDLLAEGWSSVRSPQWLRSKWWTIKRQIANHKDVSFPVLIKGLKQLHENQKNNPVLLENKSGSGVPNSNCNSSVQHVQIRVARLEDNTAISPSPMAALQIPVQITHVSSTDSPAASADSETITLNSGTLQTFEILPSFPLQPTGTPGTYLLQTSSSQGLPLTLTTNPTLTLAAAAPASPEQIIVHALSPEHLLNTSDNVTVQCHTPRVIIQTVATEDITSSLSQEELTVDSDLHSSDFPEPPDALEADTFPDEIPRPKMTIQPSFNNAHVSKFSDQNSTELMNSVMVRTEEEIADTDLKQEEPPSDLASAYVTEDLESPTIVHQVHQTIDDETILIVPSPHGFIQASDVIDTESVLPLTTLTDPIFQHHQEASNIIGSSLGSPVSEDSKDVEDLVNCH
modifications: left off: a dimerising Fc or GST
notes: GST fused to residues 176-761 of DMP1, bacterially synthesized
D-type cyclins
  interaction with D1: not detected

B3: Myc: known rapid inducer of p19ARF protein expression used as positive control (protein, UniProt P01108 1-454, looked up)
Myc proto-oncogene protein: MDFLWALETPQTATTMPLNVNFTNRNYDLDYDSVQPYFICDEEENFYHQQQQSELQPPAPSEDIWKKFELLPTPPLSPSRRSGLCSPSYVAVATSFSPREDDDGGGGNFSTADQLEMMTELLGGDMVNQSFICDPDDETFIKNIIIQDCMWSGFSAAAKLVSEKLASYQAARKDSTSLSPARGHSVCSTSSLYLQDLTAAASECIDPSVVFPYPLNDSSSPKSCTSSDSTAFSPSSDSLLSSESSPRASPEPLVLHEETPPTTSSDSEEEQEDEEEIDVVSVEKRQTPAKRSESGSSPSRGHSKPPHSPLVLKRCHVSTHQHNYAAPPSTRKDYPAAKRAKLDSGRVLKQISNNRKCSSPRSSDTEENDKRRTHNVLERQRRNELKRSFFALRDQIPELENNEKAPKVVILKKATAYILSIQADEHKLTSEKDLLRKRREQLKHKLEQLRNSGA
p19ARF
  ARF protein synthesis: induced ARF protein synthesis
wild-type MEFs
  apoptosis / cell death: induced cell death

B4: Fli1: Ets family member (protein, UniProt P26323 1-452, looked up)
Friend leukemia integration 1 …: MDGTIKEALSVVSDDQSLFDSAYGAAAHLPKADMTASGSPDYGQPHKINPLPPQQEWINQPVRVNVKREYDHMNGSRESPVDCSVSKCNKLVGGGEANPMNYNSYMDEKNGPPPPNMTTNERRVIVPADPTLWTQEHVRQWLEWAIKEYGLMEIDTSFFQNMDGKELCKMNKEDFLRATSAYNTEVLLSHLSYLRESSLLAYNTTSHTDQSSRLNVKEDPSYDSVRRGAWNNNMNSGLNKSPLLGGSQTMGKNTEQRPQPDPYQILGPTSSRLANPGSGQIQLWQFLLELLSDSANASCITWEGTNGEFKMTDPDEVARRWGERKSKPNMNYDKLSRALRYYYDKNIMTKVHGKRYAYKFDFHGIAQALQPHPTETSMYKYPSDISYMPSYHAHQQKVNFVPSHPSSMPVTSSSFFGAASQYWTSPTAGIYPNPSVPRHPNTHVPSHLGSYY
[1]
  ARF promoter reporter gene expression: minimal activity
